Test [1] addresses cell surface receptors for M1 peptide (TCR Vβ17) on expanded Vβ17+CD8+ T cells. Kind of test: tetramer staining, flow cytometry on enriched Vβ17+CD8+ T cells expanded with M1 peptide and IL-2. (Flow cytometry measures light scatter and fluorescence of single cells or particles in a stream.)
The target is the same in test [2]. The experiment in a line: flow cytometry, staining with M1 peptide loaded MHC class I tetramer and anti-human Vβ17 mAb; enriched Vβ17+CD8+ T cells from day 12 PBMCs stimulated with M1 peptide and IL-2.
Test [3] has the same target. The experiment in a line: flow cytometry, […] (91.6) […].

“Influenza A derived Matrix protein (M1) peptide loaded MHC class I tetramer (MBL, Catalog No. TS-0012-2C) (peptide-MHC)”: the percent of expanded Vβ17+CD8+ T cells positive for the tetramer in test [1] was found to be 86%. In test [2], this substance had a % M1 Tet-negative Vβ17+ cells among enriched Vβ17+CD8+ T cells of 11.9% and a % M1 Tet-positive Vβ17+ cells among enriched Vβ17+CD8+ T cells of 86.8%. In test [3], this substance showed a % M1 Tet-negative Vβ17+ cells among gated Vβ17+CD8+ T cells of 11.9% and a % M1 Tet-positive Vβ17+ cells among gated Vβ17+CD8+ T cells of 86.8%.

Source of the values: patent US20220040232A1.
